Paper PMC3184163, “The Amino-Terminus of Nitric Oxide Sensitive Guanylyl Cyclase α1 Does Not Affect Dimerization but Influences Subcellular Localization” (PLoS ONE, 2011)

B1: C-α1 splice variant of the nitric oxide sensitive guanylyl cyclase α1-subunit (human α1ΔN259) (domain or fragment, UniProt Q02108-1 259-690, looked up)
chain: MKSTKPSLSPSKPQSSLVIPTSLFCKTFPFHFMFDKDMTILQFGNGIRRLMNRRDFQGKPNFEEYFEILTPKINQTFSGIMTMLNMQFVVRVRRWDNSVKKSSRVMDLKGQMIYIVESSAILFLGSPCVDRLEDFTGRGLYLSDIPIHNALRDVVLIGEQARAQDGLKKRLGKLKATLEQAHQALEEEKKKTVDLLCSIFPCEVAQQLWQGQVVQAKKFSNVTMLFSDIVGFTAICSQCSPLQVITMLNALYTRFDQQCGELDVYKVETIGDAYCVAGGLHKESDTHAVQIALMALKMMELSDEVMSPHGEPIKMRIGLHSGSVFAGVVGVKMPRYCLFGNNVTLANKFESCSVPRKINVSPTTYRLLKDCPGFVFTPRSREELPPNFPSEIPGICHFLDAYQQGTNSKPCFQKKDVEDGNANFLGKASGID
notes: α1-subunit of nitric oxide sensitive guanylyl cyclase, human, amino-terminal deletion α1ΔN259; predicted 48 kDa; The name ΔN259 could also be read as loss of the first 259 residues; also called C-α1-splice form; source: Sf-9, recombinant baculovirus, cytosolic fraction; co-purified with β1-S on Strep-Tactin
B2: nitric oxide sensitive guanylyl cyclase α1-subunit, wild type (human) (natural protein, UniProt Q02108-1 1-690, looked up)
chain: MFCTKLKDLKITGECPFSLLAPGQVPNESSEEAAGSSESCKATVPICQDIPEKNIQESLPQRKTSRSRVYLHTLAESICKLIFPEFERLNVALQRTLAKHKIKESRKSLEREDFEKTIAEQAVAAGVPVEVIKESLGEEVFKICYEEDENILGVVGGTLKDFLNSFSTLLKQSSHCQEAGKRGRLEDASILCLDKEDDFLHVYYFFPKRTTSLILPGIIKAAAHVLYETEVEVSLMPPCFHNDCSEFVNQPYLLYSVHMKSTKPSLSPSKPQSSLVIPTSLFCKTFPFHFMFDKDMTILQFGNGIRRLMNRRDFQGKPNFEEYFEILTPKINQTFSGIMTMLNMQFVVRVRRWDNSVKKSSRVMDLKGQMIYIVESSAILFLGSPCVDRLEDFTGRGLYLSDIPIHNALRDVVLIGEQARAQDGLKKRLGKLKATLEQAHQALEEEKKKTVDLLCSIFPCEVAQQLWQGQVVQAKKFSNVTMLFSDIVGFTAICSQCSPLQVITMLNALYTRFDQQCGELDVYKVETIGDAYCVAGGLHKESDTHAVQIALMALKMMELSDEVMSPHGEPIKMRIGLHSGSVFAGVVGVKMPRYCLFGNNVTLANKFESCSVPRKINVSPTTYRLLKDCPGFVFTPRSREELPPNFPSEIPGICHFLDAYQQGTNSKPCFQKKDVEDGNANFLGKASGID
notes: predicted 77.6 kDa; also called α1WT; α1 full-length; source: Sf-9, recombinant baculovirus, cytosolic fraction; co-purified with β1-S on Strep-Tactin

Experiments:
[1] = biological target: T1, nitric oxide sensitive guanylyl cyclase β1-subunit with carboxy-terminal Strep Tag II, P20595; assay: pull-down; co-purification: α1 variant expressed with carboxy-terminally Strep Tag II tagged β1 in Sf-9; cytosolic fraction applied to Strep-Tactin Superflow resin; buffer W 100 mM Tris-HCl, 1 M NaCl, 1 mM EDTA, 1 mM benzamidine, 10 mM DTT, pH 8.0; eluted with 2.5 mM D-desthiobiotin; on ice or at …
T1 chain: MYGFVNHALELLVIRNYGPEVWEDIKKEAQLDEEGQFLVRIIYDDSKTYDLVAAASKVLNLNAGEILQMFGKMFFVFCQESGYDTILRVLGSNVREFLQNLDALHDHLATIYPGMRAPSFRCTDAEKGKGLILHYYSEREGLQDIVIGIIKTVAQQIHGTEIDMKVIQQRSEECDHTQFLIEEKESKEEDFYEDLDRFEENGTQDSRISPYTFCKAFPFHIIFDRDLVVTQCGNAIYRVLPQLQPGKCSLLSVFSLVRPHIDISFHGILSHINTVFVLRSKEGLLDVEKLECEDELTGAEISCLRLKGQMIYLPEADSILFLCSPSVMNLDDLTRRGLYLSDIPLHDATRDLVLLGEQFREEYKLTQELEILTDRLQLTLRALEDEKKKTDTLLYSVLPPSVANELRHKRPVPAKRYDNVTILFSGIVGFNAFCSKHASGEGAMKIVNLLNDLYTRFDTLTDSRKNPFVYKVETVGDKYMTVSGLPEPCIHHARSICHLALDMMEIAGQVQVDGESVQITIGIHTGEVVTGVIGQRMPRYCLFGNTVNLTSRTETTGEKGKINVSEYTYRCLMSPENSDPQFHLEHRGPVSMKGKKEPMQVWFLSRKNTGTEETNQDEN

[2] = biological target: T2, nitric oxide sensitive guanylyl cyclase β1-subunit with carboxy-terminal Strep Tag II (UniProt P20595 1-619); assay: pull-down; co-purification: α1 variant expressed with carboxy-terminally Strep Tag II tagged β1 in Sf-9; cytosolic fraction applied to Strep-Tactin Superflow resin; buffer W 100 mM Tris-HCl, 1 M NaCl, 1 mM EDTA, 1 mM benzamidine, 10 mM DTT, pH 8.0; eluted with 2.5 mM D-desthiobiotin; on ice or at 4°C; SDS-PAGE, Coomassie staining, densitometry; cells also cultured without supplement, with hemin (4 mg/l), or with …; settings: partners not purified
T2 construct: β1-subunit of nitric oxide sensitive guanylyl cyclase; PvuI/StuI fragment of the conjoined construct β1α1-Strep [27] in pFastBac1; predicted 72.2 kDa with tag; also called Strep tagged β1-subunit; source: Sf-9, recombinant baculovirus, cytosolic fraction; purified on Strep-Tactin Superflow; not shown: Strep Tag II, C-terminal, kept
T2 sequence (looked up): T1 chain

Row | Binder | relative heterodimerization by densitometry (% of α1WT) [1] | ratio of band intensities of the α1 variant to β1 [2]
1 | B1 | 166.2 % (±12.2 %) | 0.75
2 | B2 | – | 0.43
